# The PETadex activity labels (doi:10.1186/s13568-014-0044-9)
# B1: unnamed (protein)
# chain: MKRTLKRALSLLPAAALAASALVAASPAQAAANPYQRGPNPTEASITAARGPFNTAEITVSRLSVSGFGGGKIYYPTTTSEGTFGAIAISPGFTAYWSSLEWLGHRLASQGFVVIGIETNTTLDQPDQRGQQLLAALDYLTQRSAVRDRVDASRLAVAGHSMGGGGSLEAAKARTSLKAAIPLAPWNLDKTWPEVRTPTLIIGGELDAVAPVATHSIPFYNSLSNAPEKAYLELDNASHFFPNITNTQMAKYMIAWMKRFIDDDTRYTQFLCPPPSTGLLSDFSDARFTCPM
# B2: unnamed (protein)
# chain: MSLRKSFGLLSATAALVAGLVAAPPAQAAANPYQRGPDPTESLLRAARGPFAVSEQSVSRLSVSGFGGGRIYYPTTTSQGTFGAIAISPGFTASWSSLAWLGPRLASHGFVVIGIETNTRLDQPDSRGRQLLAALDYLTQRSSVRNRVDASRLAVAGHSMGGGGTLEAAKSRTSLKAAIPIAPWNLDKTWPEVRTPTLIIGGELDSIAPVATHSIPFYNSLTNAREKAYLELNNASHFFPQFSNDTMAKFMISWMKRFIDDDTRYDQFLCPPPRAIGDISDYRDTCPHT
# Substrate: p-NP-C4
# Test: not given
# Settings: pH 8.5; 25 °C
Protein,Km [µM],kcat [s⁻¹],kcat/Km [M⁻¹ s⁻¹]
B1,83,12.4,149000
B2,88.8,2.3,25900

# Substrate: pNPB
# Test: Proxy for plastic degradation [Km]
# Settings: pH 8.5
row,Protein,Proxy for plastic degradation [µM]
1,B1,83.1
2,B2,88.8

# Substrate: pNPB
# Test: Proxy for plastic degradation [kcat] (s⁻¹)
# Settings: pH 8.5
row,Protein,Proxy for plastic degradation
1,B1,12.4
2,B2,2.3

# Same assay, conditions: pH 8.5; 25 °C
row,Protein,Proxy for plastic degradation
1,B1,12.4
2,B2,2.3

# Substrate: pNPB
# Test: Proxy for plastic degradation [Residual activity]
# Settings: pH 8.5; 50 °C; 0 h
row,Protein,Proxy for plastic degradation [%]
1,B1,100
2,B2,100

# Same assay, conditions: pH 8.5; 50 °C; 10 h
row,Protein,Proxy for plastic degradation [%]
1,B1,85
2,B2,100

# Same assay, conditions: pH 8.5; 50 °C; 20 h
row,Protein,Proxy for plastic degradation [%]
1,B1,75
2,B2,105

# Same assay, conditions: pH 8.5; 50 °C; 30 h
row,Protein,Proxy for plastic degradation [%]
1,B1,70
2,B2,110

# Same assay, conditions: pH 8.5; 50 °C; 45 h
row,Protein,Proxy for plastic degradation [%]
1,B1,45
2,B2,115

# Same assay, conditions: pH 8.5; 50 °C; 60 h
row,Protein,Proxy for plastic degradation [%]
1,B1,40
2,B2,114

# Same assay, conditions: pH 8.5; 55 °C; 0 h
row,Protein,Proxy for plastic degradation [%]
1,B1,100
2,B2,100

# Same assay, conditions: pH 8.5; 55 °C; 10 h
row,Protein,Proxy for plastic degradation [%]
1,B1,15
2,B2,103

# Same assay, conditions: pH 8.5; 55 °C; 20 h
row,Protein,Proxy for plastic degradation [%]
1,B1,15
2,B2,95

# Same assay, conditions: pH 8.5; 55 °C; 30 h
row,Protein,Proxy for plastic degradation [%]
1,B1,15
2,B2,90

# Same assay, conditions: pH 8.5; 55 °C; 45 h
row,Protein,Proxy for plastic degradation [%]
1,B1,14
2,B2,89

# Same assay, conditions: pH 8.5; 55 °C; 60 h
row,Protein,Proxy for plastic degradation [%]
1,B1,15
2,B2,80

# Same assay, conditions: pH 8.5; 60 °C; 0 h
row,Protein,Proxy for plastic degradation [%]
1,B1,100
2,B2,100

# Same assay, conditions: pH 8.5; 60 °C; 10 h
row,Protein,Proxy for plastic degradation [%]
1,B1,15
2,B2,35

# Same assay, conditions: pH 8.5; 60 °C; 20 h
row,Protein,Proxy for plastic degradation [%]
1,B1,15
2,B2,32

# Same assay, conditions: pH 8.5; 60 °C; 30 h
row,Protein,Proxy for plastic degradation [%]
1,B1,15
2,B2,30

# Same assay, conditions: pH 8.5; 60 °C; 45 h
row,Protein,Proxy for plastic degradation [%]
1,B1,15
2,B2,25

# Same assay, conditions: pH 8.5; 60 °C; 60 h
row,Protein,Proxy for plastic degradation [%]
1,B1,14
2,B2,25

# Substrate: pNPB
# Test: Proxy for plastic degradation [Relative activity]
# Settings: 30 °C
row,Protein,Proxy for plastic degradation [%]
1,B1,25
2,B2,35

# Same assay, conditions: 40 °C
row,Protein,Proxy for plastic degradation [%]
1,B1,40
2,B2,50

# Same assay, conditions: 50 °C
row,Protein,Proxy for plastic degradation [%]
1,B1,75
2,B2,70

# Same assay, conditions: 55 °C
row,Protein,Proxy for plastic degradation [%]
1,B1,100
2,B2,85

# Same assay, conditions: 60 °C
row,Protein,Proxy for plastic degradation [%]
1,B1,80
2,B2,100

# Same assay, conditions: 65 °C
row,Protein,Proxy for plastic degradation [%]
1,B1,50
2,B2,70

# Same assay, conditions: 70 °C
row,Protein,Proxy for plastic degradation [%]
1,B1,10
2,B2,35

# Same assay, conditions: pH 6.5
row,Protein,Proxy for plastic degradation [%]
1,B1,10
2,B2,10

# Same assay, conditions: pH 7
row,Protein,Proxy for plastic degradation [%]
1,B1,22
2,B2,22

# Same assay, conditions: pH 7.5
row,Protein,Proxy for plastic degradation [%]
1,B1,55
2,B2,50

# Same assay, conditions: pH 8
row,Protein,Proxy for plastic degradation [%]
1,B1,95
2,B2,85

# Same assay, conditions: pH 8.5
row,Protein,Proxy for plastic degradation [%]
1,B1,100
2,B2,100

# Same assay, conditions: pH 9
row,Protein,Proxy for plastic degradation [%]
1,B1,90
2,B2,95

# Same assay, conditions: pH 9.5
row,Protein,Proxy for plastic degradation [%]
1,B1,65
2,B2,75
